Values quoted from earlier work in patent US20080181869A1, “THERAPEUTICS TO FACILITATE CELL TRANSPLANTATION FOR LIVER DISEASE” (priority 2006, published 2008).

How the values were obtained:
lung fibroblasts = details: in vitro
gene for TGF-β1 = details: bleomycin-induced model of lung fibrosis, exogenous interferon-γ
[1] = test system: hepatic stellate cells (HSCs); details: rat CCl4 model of liver damage
[2] = test system: rat model of hypertension
[3] = in vivo
liver = details: after hepatic resection
tumor cell = details: in vitro or in vivo studies

## interferon-γ: interferon that inhibits proliferation of lung fibroblasts
Lung fibroblasts
  proliferation of lung fibroblasts: inhibits the proliferation of lung fibroblasts in a dose-dependent manner
  synthesis of protein in fibroblasts: reduces the synthesis of protein in fibroblasts
Gene for TGF-β1
  transcription of the gene for TGF-β1: down-regulated

## relaxin
[1]
  collagen deposition by hepatic stellate cells: inhibit collagen deposition
[2]
  cardiac and renal fibrosis: reversing cardiac and renal fibrosis
[3]
  adverse events: few adverse events

B1: follistatin: peptide inhibitor of Activin A, a member of the transforming growth factor-beta superfamily (protein, UniProt P19883 30-344, looked up)
Follistatin: GNCWLRQAKNGRCQVLYKTELSKEECCSTGRLSTSWTEEDVNDNTLFKWMIFNGGAPNCIPCKETCENVDCGPGKKCRMNKKNKPRCVCAPDCSNITWKGPVCGLDGKTYRNECALLKARCKEQPELEVQYQGRCKKTCRDVFCPGSSTCVVDQTNNAYCVTCNRICPEPASSEQYLCGNDGVTYSSACHLRKATCLLGRSIGLAYEGKCIKAKSCEDIQCTGGKKCLWDFKVGRGRCSLCDELCPDSKSDEPVCASDNATYASECAMKEAACSSGVLLEVKHSGSCNSISEDTEEEEEDEDQDYSFPISSILEW
CCl4-exposed rats; CCl4-exposed rats treated with the peptide
  reduction in fibrosis: 32%
CCl4-exposed rats; CCl4-exposed rats, during treatment
  decrease in hepatocyte apoptosis: 87%
CCl4-exposed rats; week of follistatin treatment
  time of maximal effect on hepatocyte apoptosis: 4 week
HSC
  TGF-β-induced secretion of collagen from HSC: inhibit TGF-β-induced secretion of collagen
liver
  liver weight: significantly increases liver weight
Tumor cell
  tumor cell growth: did not accelerate tumor cell growth
